Broadly, the Kd is the concentration at which binding is half-saturated. A lower Kd goes with higher affinity. The term koff denotes a measure of how fast the partners let go of each other. Read a high koff as fast dissociation. One may read the kon as the rate constant with which the complex forms.

We go through 10 molecules from US20260015423A1 (STAIDSON BIOPHARMA, published 2026).

Numbering of substitutions follows the chain as printed.

B1: humanized anti-human PD-L1 antibody Hum-5 (antibody, human IgG1, kappa, V domains shown)
VH: EVQLVESGGGLVQPGGSLRLSCAASGFTFGGFGMHWVRQAPGKGLEWVSYITGDSSTIYYADRVRGRFTISRDNAKNSLYLQMNSLRAEDTAVYYCVRGPPGTWAYWGQGTLVTVSS
VL: EIVLTQSPATLSLSPGERATLSCRASESVEFYGTTLVQWYQQKPGQAPRLLIYGASNVESGIPARFSGSGSGTDFTLTISSLEPEDFAVYYCQQIRKVPWTFGQGTKVEIKR
B2: humanized anti-human PD-L1 antibody Hum-7 (antibody, human IgG1, kappa, V domains shown)
VH: B1 VH
VL: B1 VL with Y91F
B3: humanized anti-human PD-L1 antibody Hum-6 (antibody, human IgG1, kappa, V domains shown)
VH: B1 VH
VL: B1 VL with A47P
B4: chimeric anti-human PD-L1 antibody Mab 3-16 (antibody, human IgG1, kappa, V domains shown)
VH: DVQLVESGGGLVQPGGSRKLSCAASGFTFGGFGMHWVRQAPEKGLEWVAYITGDSSTIYYADRVRGRFTISRDNPRNILFLQMTSLGSEDTAMYYCVRGPPGTWAYWGQGTLVTVSA
VL: DIVLTQSPASLAVSLGQRATFSCRASESVEFYGTTLVQWYQQRPGQPPKLLIYGASNVESGVPARFTGSGSGTDFSLNIHPVEEDDIAMYFCQQIRKVPWTFGGGTKLEIRR
notes: Mouse variable domains on human IgG1 / kappa constant regions; also called parent antibody Mab 3-16
B5: chimeric anti-human PD-L1 antibody Mab 2-04 (antibody, human IgG1, kappa, V domains shown)
VH: QVQLQQSGAELARPGASVKMSCKASGYTFTDYAMHWIKQRPGQGLEWIGFIIPSGDHTDYNQNFKDRATLTADKSSNTAYMQLTSLTPDDSAVYFCARGHGFHLYVMDYWGQGTSVTVSS
VL: DIVMTQSPATLSVTPGDGVSLSCRASQSIADYLHWYQQKSHESPRLLIKYASQSISGIPSRFSGSGSGSDFTLSISSVEPEDVGVYFCQNGHSFPPTFGTGTKLELKR
notes: Mouse variable domains on human IgG1 / kappa constant regions
B6: chimeric anti-human PD-L1 antibody Mab 1-01 (antibody, human IgG1, kappa, V domains shown)
VH: EVQLQQSGPELVKPGASVKMSCKASGYSFSGYFLNWVKQSHGKSLEWIGRINPSNDDTVYSQKFKDRATLSLDRSSGTVHMELRSLTSEDSAVYYCARFGHASWYFDVWGAGTTVTVSS
VL: QIVLTQSPAIMSASPGEKVTMTCSARSSVIYMSWYQQKPGSSPRLLIYDTSHLASGVPVRFSGSGSGTFYSLIISRVEAEDAATYYCQQWSTYPLTFGAGTRLELNR
notes: as for B5
B7: chimeric anti-human PD-L1 antibody Mab 1-02 (antibody, human IgG1, kappa, V domains shown)
VH: B6 VH with F106L
VL: B6 VL with V29I, P39T, Y70F, V77M, N106K
notes: as for B5
B8: chimeric anti-human PD-L1 antibody Mab 3-18 (antibody, human IgG1, kappa, V domains shown)
VH: EVHLQESGPSLVKPSQTLSLTCSVTGDSITSGYWNWIRQFPGNKLEYMGYVSYSGSTYYNPSLKSRISITRDTSKNQYYLQLSSVTTEDTATYYCANYYGDNWPFPLDYWGQGTSVIVSS
VL: DIVMTQAAPSVPVTPGESVSISCRSNKSLLHSNGNTYLYWFLQRPGQSPQLLIYRMSNLASGVPDRFSGSGSGTAFTLTISRVEAEDVGVYYCMQHLEYPFTFGGGTKLEIER
notes: as for B5
B9: chimeric anti-human PD-L1 antibody Mab 3-17 (antibody, human IgG1, kappa, V domains shown)
VH: B8 VH
VL: DIVMTQSPATLSVTPGDRVSLSCRASQSINGNLHWFQQKSHESPRLLIKYASQSISGIPSRFSGSGSGSDFTLRINSVEPEDVGVYYCQNGHGFPYTFGGGTKLEIKR
notes: as for B5
B10: chimeric anti-human PD-L1 antibody Mab 3-14 (antibody, human IgG1, kappa, V domains shown)
VH: QVQLQQSGAELVKPGTSVKLSCKASGYTFSMYYMFWVKQRPGQGLEWIGQINPSNGRTNFNEKFKSKATLTVDKSSTTAYMQLSSLTSEDSAVYYCTREISYDEFAYWGQGTLVTVSA
VL: DVVMTQTPLSLPVSLGDQASISCRSSQSLVHSNGNTYLHWYLQKPGQSPKLLIYRVSNRFSGVPDRFSGSGSGTDFTLKISRVEAEDLGIYFCSQSAHLPYTFGGGTKLEIKR
notes: as for B5

T2 sequence (Q9NZQ7 19-238 limits assumed): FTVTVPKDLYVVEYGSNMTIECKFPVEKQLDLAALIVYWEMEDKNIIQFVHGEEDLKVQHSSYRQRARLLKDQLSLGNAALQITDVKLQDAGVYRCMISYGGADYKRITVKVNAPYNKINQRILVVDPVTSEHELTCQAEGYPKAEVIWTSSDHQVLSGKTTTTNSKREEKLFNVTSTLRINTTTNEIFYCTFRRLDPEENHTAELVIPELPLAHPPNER
T3 sequence (G7PSE7 entry or part of it C08H C08H limits assumed): as the sequence (Q9NZQ7 19-238 limits assumed) above, with A33T, A34S, S62N, R68Q, Q82R, F173L, T185A, T192I, H215L counted along it

The target of one experiment is T1, Europium-conjugated human PD-L1 (human, UniProt Q9NZQ7 19-238, limits assumed, Europium conjugate (site not stated)).
T1 construct: also called Europium-human PD-L1; PD-L1 (HTRF donor protein)
T1 sequence (Q9NZQ7 19-238 limits assumed): as the sequence (Q9NZQ7 19-238 limits assumed) above
Put plainly: HTRF competition assay: Europium-human PD-L1 with Alexa-647-conjugated Mab 3-16 as competitor, unlabelled antibody titrated. In general terms: Time-resolved FRET reads energy transfer from a long-lived donor to a nearby acceptor.
B1: the “IC50 (read off the curve)” value was about 0.1 µg/mL.
Same read-out and setting: as for B2, the figure is about 0.1 µg/mL.
Take B3: the “IC50 (read off the curve)” value is about 0.1 µg/mL.

The next experiment concerns the target T2, human PD-L1 (Sino biological, 10084-H08H) (human, UniProt Q9NZQ7 19-238).
T2 construct: Bought recombinant protein used as analyte in BLI
Put plainly: BLI (Octet Red), antibody captured on anti-human Fc sensors, human PD-L1 as analyte; Table 8 run, alongside humanized Hum-5/6/7. A general note: Biolayer interferometry detects binding as a change in optical thickness at a sensor tip.
The molecule B4 yielded a Kd of under 1 pM.

Another experiment addresses T1, Europium-conjugated human PD-L1. Put plainly: HTRF blocking assay: Europium-human PD-L1 with Alexa-647 human PD-1 as the blocked ligand, antibody titrated.
As to B5, the “IC50 (read off the curve)” value was about 0.3 µg/mL.

A further experiment deals with human PD-L1 on cells (Raji cell line expressing human PD-L1; human PBMCs) (human, UniProt Q9NZQ7 19-290). Put plainly: cell-based or functional assay.
human PD-L1 on cells (Raji cell line expressing human PD-L1; human PBMCs), sequence (Q9NZQ7 19-290): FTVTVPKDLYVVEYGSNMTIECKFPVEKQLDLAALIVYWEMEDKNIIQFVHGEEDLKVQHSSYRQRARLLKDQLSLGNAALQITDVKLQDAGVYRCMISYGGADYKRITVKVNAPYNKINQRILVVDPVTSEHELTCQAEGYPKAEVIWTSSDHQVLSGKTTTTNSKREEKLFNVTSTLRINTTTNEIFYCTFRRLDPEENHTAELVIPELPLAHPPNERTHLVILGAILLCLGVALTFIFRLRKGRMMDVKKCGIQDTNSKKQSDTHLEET
For B4, the “EC50(nM), IL-2 production by SEB stimulated human PBMCs” value worked out at 5.41 nM.

The next experiment deals with T2, human PD-L1 (Sino biological, …). Put plainly: BLI (Octet Red), antibody captured on anti-human Fc sensors, human PD-L1 as analyte.
B4 displayed a Kd of 146 pM, a koff of 6.17e-05 s⁻¹ and a kon of 423000 M⁻¹ s⁻¹.
B6 had a Kd of 13000 pM.
For B7, binding was put at a Kd of 16000 pM.
Molecule B5 came in with a Kd of 279 pM, a koff of 0.000241 s⁻¹ and a kon of 864000 M⁻¹ s⁻¹.
Taken in the same sequence, the figures for B8 were 1160 pM, 0.000408 s⁻¹ and 351000 M⁻¹ s⁻¹.
For B9, in that order: 1500 pM, 0.000626 s⁻¹ and 417000 M⁻¹ s⁻¹.
Taken in the same sequence, the figures for B10 were 124 pM, 4.05e-05 s⁻¹ and 327000 M⁻¹ s⁻¹.

For another experiment the target is unchanged. The description is as above. The source holds these as a separate data set.
Molecule B4 gave a koff of 1.19e-07 s⁻¹ and a kon of 286000 M⁻¹ s⁻¹.
B1 gave a Kd of 126 pM, a koff of 3.92e-05 s⁻¹ and a kon of 310000 M⁻¹ s⁻¹.
For B2, in that order: under 1 pM, 1.28e-07 s⁻¹ and 302000 M⁻¹ s⁻¹.
B3 yielded a Kd of under 1 pM, a koff of under 1e-07 s⁻¹ and a kon of 292000 M⁻¹ s⁻¹.

The target of a further experiment is T1, Europium-conjugated human PD-L1. Put plainly: HTRF competition assay: Europium-human PD-L1 with Alexa-647-conjugated Mab 3-16 as competitor, unlabelled Mab 3-16 titrated.
As for B4, the “IC50 (read off the curve)” value is about 0.2 µg/mL.

The next experiment has the same target. Put plainly: HTRF blocking assay: Europium-human PD-L1 with Alexa-647 human PD-1 as the blocked ligand, antibody titrated. The source holds these as a separate data set.
As for B4, the “IC50 (read off the curve)” value was about 0.2 µg/mL.
The same measure, in the same setting: as for B8, the figure is about 0.2 µg/mL; as for B9, about 0.2 µg/mL.
B10: the “IC50 (read off the curve)” value is about 0.2 µg/mL.

Another experiment has the same target. Put plainly: HTRF competition assay: Europium-human PD-L1 with Alexa-647-conjugated Mab 3-16 as competitor, unlabelled Mab 3-16 titrated. The source holds these as a separate data set.
In the case of B4, the “IC50 (read off the curve)” value was about 0.2 µg/mL.

Another experiment has as its target T3, cynomolgus PD-L1 (Sino biological, 90251-C08H) (cynomolgus, UniProt G7PSE7 19-238).
T3 construct: Bought recombinant protein used as analyte in BLI; not shown: C-terminal polyhistidine tag of the bought product (Sino Biological 90251-C08H)
Put plainly: BLI (Octet Red), antibody captured on anti-human Fc sensors, cynomolgus PD-L1 as analyte.
On to B4, for which the Kd was determined as 863 pM, the koff turned out to be 8.34e-05 s⁻¹ and the kon is 96700 M⁻¹ s⁻¹.
Taken in the same sequence, the figures for B1 were 915 pM, 8.65e-05 s⁻¹ and 94500 M⁻¹ s⁻¹.
Taken in the same sequence, the figures for B2 were at most 1.1 pM, under 1e-07 s⁻¹ and 73100 M⁻¹ s⁻¹.
Taken in the same sequence, the figures for B3 were 2.08 pM, 1.33e-07 s⁻¹ and 63900 M⁻¹ s⁻¹.
